Holding throughout (experiment): ELISA, construct coated on plate
Background: In an ELISA, binding on a coated surface is turned into a signal by an enzyme label.

One assay addresses T1, hTIM3-Fc WT (human).
T1 construct: also called hTIM-3-hFc

Another assay addresses T2, hTIM3-Fc murine BC loop (human, BC loop replaced by mouse TIM-3).
T2 construct: Whole construct: chimeric ECD, linker and human IgG1 Fc; also called hTIM3-Fc BC loop chimera

The next assay deals with T3, hTIM3-Fc murine CC′ loop (human, CC′ loop replaced by mouse TIM-3).
T3 construct: Whole construct: chimeric ECD, linker and human IgG1 Fc; also called hTIM3-Fc CC′ loop chimera

The target of another assay is T4, hTIM3-Fc murine DE loop (human, DE loop replaced by mouse TIM-3).
T4 construct: Whole construct: chimeric ECD, linker and human IgG1 Fc; also called hTIM3-Fc DE loop chimera

The target of another assay is T5, hTIM3-Fc murine FG loop (human, FG loop replaced by mouse TIM-3).
T5 construct: Whole construct: chimeric ECD, linker and human IgG1 Fc; also called hTIM3-Fc FG loop chimera

The target in assay [1] is T6, hTIM3-Fc murine C′C″ loop (human, C′C″ loop replaced by mouse TIM-3).
T6 construct: Whole construct: chimeric ECD, linker and human IgG1 Fc; also called hTIM3-Fc C′C″ loop chimera

B1: mAb91 (antibody, V domains shown)
VH: DVQFQESGPGLVKPSQSLSLTCSVTGYSITSGYYWNWIRQFPGNKLEWMGYISYDGSNNYNPSLKNRISITRDTSKNQFFLKLNSVTTEDTATYYCGRDGPYYYGSSYGYFDVWGTGTTVTVSS
VL: DIVMTQAESSVPVTPGESVSISCRSSKSLLHSNGNTYLYWFLQRPGQSPQLLIHRMSNLASGVPDRFSGSGSGTAFTLRISRVEAEDMGVYYCMQHLEYPCTFGGGTKLEIK
notes: Mouse hybridoma antibody
B1: the “Absorbance at 450 nm” value with hTIM3-Fc WT worked out at 1.57 A450; in the assay with hTIM3-Fc murine BC loop, 1.44 A450; with hTIM3-Fc murine CC′ loop it was 0.502 A450; in the assay with hTIM3-Fc murine DE loop, 1.01 A450; with hTIM3-Fc murine FG loop it was 1.74 A450.

B2: mAb48 (antibody, V domains shown)
VH: QIQLQQSGPELVTPGTSVKISCKASGYTFTDYYINWVKQRPGQGLEWIGWIYPGSGNTKYNEKFKGKATLTVDTSSSIAYMHLSSLTSEDSAVYFCAGDRFDYWGQGTTLTVSS
VL: QIVLTQSPAIMSASPGEKVTLTCSASSGVSSSYLYWYQQKPGSSPKLWIYSTSNLASGVPARFSGSGSGTSYSLTISNMETEDAASYFCHQWSNSPYTFGGGTKLEIK
notes: Mouse hybridoma antibody
Take B2: the “Absorbance at 450 nm” value with hTIM3-Fc WT was 1.39 A450; in the assay with hTIM3-Fc murine BC loop it was 1.3 A450; in the assay with hTIM3-Fc murine CC′ loop, 0.247 A450; with hTIM3-Fc murine FG loop, 1.53 A450.

B3: mAb15 (antibody, V domains shown)
VH: QVQLKESGPGLVAPSQSLSITCTVSGFSLTGYGVTWVRQPPGKGLEWLGMIWGDGNTDYNSGLKSRLNISKDNSKSQVFLKMNSLQTDDTARYYCARSYYYGPPDYWGQGTTLTVSS
VL: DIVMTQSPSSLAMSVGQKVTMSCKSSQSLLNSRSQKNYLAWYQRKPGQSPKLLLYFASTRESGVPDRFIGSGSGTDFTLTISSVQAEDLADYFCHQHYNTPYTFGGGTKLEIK
notes: also called JTx mAb 15; TIM-3 mAb15
For B3, in the assay with hTIM3-Fc murine DE loop, the “Absorbance at 450 nm” value stood at 1.29 A450.

B4: mAb22 (antibody, V domains shown)
VH: EVQLVESGGDLVKPGGSLKLSCAASGFTFSNHGMSWVRQTPDKRLEWVATISSGGSNTYFPDSVKGRFTISRDNVKNSLYLQMSSLKSEDTAMYYCARHGTSMIKEWFAYWGQGTLVTVSA
VL: DIVMTQSPVTLSVTPGDRVSLSCRASQSIGDYLHWYQQKSHESPRLLIKYASQSISGIPSRFSGSGSGSDFTLNINSVEPEDVGVYYCQHSHSFPPTFGGGTRLEIK
notes: Mouse hybridoma antibody
With B4, the “Absorbance at 450 nm” value with hTIM3-Fc WT was found to be 2.13 A450; with hTIM3-Fc murine BC loop, 2.06 A450; in the assay with hTIM3-Fc murine CC′ loop it was 0.91 A450; in the assay with hTIM3-Fc murine FG loop, 2.22 A450.

B5: mAb58 (antibody, V domains shown)
VH: QIQLVQSGPELKKPGETVKISCKASGYTFTTYGMSWVKQAPGKGLKLMGWINTYSGAPTYADDFKGRFAFSLETSASAAYLQINNLKNEDTATYFCARKPPHYYVNSFDYWGQGTTLTVSS
VL: DIVMTQSPATLSVTPGDRVSLSCRASQSISDYLHWYQQKSHESPRLLIKYASQSISGIPSRFSGSGSGSDFTLSINSVEPEDVGVYYCQNGHSFPYTFGGGTKLEIK
As for B5, the “Absorbance at 450 nm” value with hTIM3-Fc WT stood at 1.39 A450; with hTIM3-Fc murine BC loop it was 1.83 A450; with hTIM3-Fc murine CC′ loop it was 1.39 A450; in assay [1], 0.338 A450; in the assay with hTIM3-Fc murine DE loop, 0.855 A450; with hTIM3-Fc murine FG loop, 1.9 A450.

These data come from patent US20160200815A1 (JOUNCE THERAPEUTICS, published 2016).
